The experiment has as its target NEIL1 DNA glycosylase (Homo sapiens (; the 390 aa …, UniProt Q96FI4). As to the kind of experiment: two-hybrid.

NEIL1 DNA glycosylase (Homo sapiens, sequence (Q96FI4 whole entry): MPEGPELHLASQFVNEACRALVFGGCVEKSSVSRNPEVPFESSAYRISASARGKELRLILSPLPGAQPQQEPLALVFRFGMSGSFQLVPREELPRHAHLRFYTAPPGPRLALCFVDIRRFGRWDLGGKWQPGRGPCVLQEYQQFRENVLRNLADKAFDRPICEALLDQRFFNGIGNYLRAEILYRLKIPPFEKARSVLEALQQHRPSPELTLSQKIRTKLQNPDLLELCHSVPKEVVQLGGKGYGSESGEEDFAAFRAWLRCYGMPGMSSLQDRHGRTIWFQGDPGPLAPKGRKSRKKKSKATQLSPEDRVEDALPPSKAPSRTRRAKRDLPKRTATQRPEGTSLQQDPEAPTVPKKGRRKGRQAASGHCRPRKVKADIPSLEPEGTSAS

B1: A5 nanobody (anti-NEIL1 nanobody) (VHH)
VHH: EVQLQASGGGFVQPGGSLRLSCAASGATSERDIMGWFRQAPGKEREFVSAISYEPGGWHYYADSVKGRFTISRDNSKNTVYLQMNSLRAEDTATYYCAWQEIMYGEAYWRYWGQGTQVTVSS
Consider B1, for which the binding result is recorded as “binds”.

The record behind these values is publication doi:10.1101/2023.08.07.552313 (bioRxiv, 2023).
